According to patent publication US10858688:

biological target: focal adhesion in fixed and permeabilized Xenopus laevis XTC cells (Xenopus laevis); test: single-molecule speckle (SiMS) TIRF imaging of EGFP-fused probe (cell lysate) on fixed, permeabilized XTC cells; exponential fit of speckle lifetimes

Substance | half-life
Paxillin fragment (amino acid residues 54-498 of sequence number 15), FLAG-EGFP fused at the N terminus | 0.091 s
Paxillin full length (FL) (full length of sequence number 15, residues 1-557), FLAG-EGFP fused at the N terminus | 0.196 s
Paxillin fragment (amino acid residues 54-557 of sequence number 15), FLAG-EGFP fused at the N terminus | 0.246 s
phosphatidylinositol-(4)-phosphate 5-kinase type Iγ-90 (PIPKIγ) fragment (641-668) (sequence number 18), N terminus tagged with FLAG-EGFP | 0.496 s
Paxillin fragment (amino acid residues 167-557 of sequence number 15), FLAG-EGFP fused at the N terminus | 0.138 s

biological target: intermediate filament in fixed and permeabilized Xenopus laevis XTC cells (Xenopus laevis); test: as above

Substance | half-life
Plectin-1 fragment (amino acid residues 3777-4313 of sequence number 8), FLAG-EGFP fused at the N terminus | 0.052 s
Plectin-1 fragment (amino acid residues 4066-4364 of sequence number 8), FLAG-EGFP fused at the N terminus | 7.7 s
Plectin-1 fragment (amino acid residues 4022-4364 of sequence number 8), FLAG-EGFP fused at the N terminus | 0.103 s
Plectin-1 fragment (amino acid residues 3777-4364 of sequence number 8), FLAG-EGFP fused at the N terminus | 0.059 s
Plectin-1 fragment (amino acid residues 3777-4684 of sequence number 8), FLAG-EGFP fused at the N terminus | 0.457 s

biological target: microtubule in fixed and permeabilized Xenopus laevis XTC cells (Xenopus laevis); test: as above

Substance | half-life
CLIP-170 fragment (amino acid residues 3-309 of sequence number 12), FLAG-EGFP fused at the N terminus | 0.044 s
MAP4 fragment (amino acid residues 659-908 of sequence number 4), FLAG-EGFP fused at the N terminus | 0.106 s
MAP4 fragment (amino acid residues 1-908 of sequence number 4), FLAG-EGFP fused at the N terminus | 0.109 s
Tau isoform 3 (full length of sequence number 5, residues 1-383), FLAG-EGFP fused at the N terminus | 0.11 s
Tau isoform 4 (sequence number 6, residues 1-352), FLAG-EGFP fused at the N terminus | 0.06 s
APC fragment (amino acid residues 2781-2819 of sequence number 14), FLAG-EGFP fused at the N terminus | 0.027 s
APC fragment (amino acid residues 2536-2843 of sequence number 14), EGFP-3xFLAG fused at the C terminus | 0.1 s
